# Results taken from US8716237B2, “Methods for the treatment or prevention of hemorrhagic conditions” (University of Rochester, priority 2007, dated 2014).
# B1: rPAI-1: mouse recombinant plasminogen activator inhibitor-1, purchased from Calbiochem; Example 20 uses recombinant stable wild-type PAI-1 (protein, UniProt P22777 23-402, looked up)
# Plasminogen activator …: TLPLRESHTAHQATDFGVKVFQQVVQASKDRNVVFSPYGVSSVLAMLQMTTAGKTRRQIQDAMGFKVNEKGTAHALRQLSKELMGPWNKNEISTADAIFVQRDLELVQGFMPHFFKLFQTMVKQVDFSEVERARFIINDWVERHTKGMINDLLAKGAVDELTRLVLVNALYFSGQWKTPFLEASTHQRLFHKSDGSTVSVPMMAQSNKFNYTEFTTPDGLEYDVVELPYQRDTLSMFIAAPFEKDVHLSALTNILDAELIRQWKGNMTRLPRLLILPKFSLETEVDLRGPLEKLGMPDMFSATLADFTSLSDQEQLSVAQALQKVRIEVNESGTVASSSTAFVISARMAPTEMVIDRSFLFVVRHNPTETILFMGQVMEP
# B2: deubiquitinating enzyme CYLD (protein)
# chain: MSSGLWSQEKVTSPYWEERIFYLLLQECSVTDKQTQKLLKVPKGSIGQYIQDRSVGHSRIPSAKGKKNQIGLKILEQPHAVLFVDEKDVVEINEKFTELLLAITNCEERFSLFKNRNRLSKGLQIDVGCPVKVQLRSGEEKFPGVVRFRGPLLAERTVSGIFFGVELLEEGRGQGFTDGVYQGKQLFQCDEDCGVFVALDKLELIEDDDTALESDYAGPGDTMQVELPPLEINSRVSLKVGETIESGTVIFCDVLPGKESLGYFVGVDMDNPIGNWDGRFDGVQLCSFACVESTILLHINDIIPALSESVTQERRPPKLAFMSRGVGDKGSSSHNKPKATGSTSDPGNRNRSELFYTLNGSSVDSQPQSKSKNTWYIDEVAEDPAKSLTEISTDFDRSSPPLQPPPVNSLTTENRFHSLPFSLTKMPNTNGSIGHSPLSLSAQSVMEELNTAPVQESPPLAMPPGNSHGLEVGSLAEVKENPPFYGVIRWIGQPPGLNEVLAGLELEDECAGCTDGTFRGTRYFTCALKKALFVKLKSCRPDSRFASLQPVSNQIERCNSLAFGGYLSEVVEENTPPKMEKEGLEIMIGKKKGIQGHYNSCYLDSTLFCLFAFSSVLDTVLLRPKEKNDVEYYSETQELLRTEIVNPLRIYGYVCATKIMKLRKILEKVEAASGFTSEEKDPEEFLNILFHHILRVEPLLKIRSAGQKVQDCYFYQIFMEKNEKVGVPTIQQLLEWSFINSNLKFAEAPSCLIIQMPRFGKDFKLFKKIFPSLELNITDLLEDTPRQCRICGGLAMYECRECYDDPDISAGKIKQFCKTCNTQVHLHPKRLNHKYNPVSLPKDLPDWDWRHGCIPCQNMELFAVLCIETSHYVAFVKYGKDDSAWLFFDSMADRDGGQNGFNIPQVTPCPEVGEYLKMSLEDLHSLDSRRIQGCARRLLCDAYMCMYQSPTMSLYK
# Legend:
# Cyld−/− mice = test: Survival of Cyld−/− mice inoculated with S. pneumoniae after pretreatment; format: in vivo, mouse; conditions: wedelolactone 10 mg/kg intraperitoneally 2 hours before S.p. inoculation
# Experimental: (§1) For S. pneumoniae-induced lethal infections in wild type, Cyld^−/−, Mkk3^−/−, and PAI-1^−/− mice, anaesthetized mice were intratracheally inoculated with live S. pneumoniae, S. pneumoniae wild type or pneumolysin mutant lysate, or pneumolysin (“PLY”), at a concentration of 5×10^7CFU per mouse for live bacteria and bacterial lysate and 200 ng/mouse for PLY in all experiments unless otherwise indicated, and saline was inoculated as control. The mice were monitored for lethality every 2 hours for the first 12 hours and every 12 hours for 5 days thereafter. To assess the effect of perturbing p38 MAPK signaling on S. pneumoniae-induced lethality in Cyld^−/− mice, Cyld^−/− mice were pretreated with the p38 inhibitor SB203580 (10 mg/kg, intraperitoneally in Cyld^−/− mice) 2 hours before S. pneumoniae inoculation, and mice were then intratracheally inoculated with S. pneumoniae. To determine the effect of administration of exogenous PAI-1 on S. pneumoniae-induced lethality, mice were intratracheally administered with mouse rPAI-1 (12.5 μg/mouse) or saline as control, followed by S. pneumoniae and PLY inoculation 1 day after PAI-1 administration. For PAI-1 neutralization in Cyld^−/− mice, Cyld^−/− mice were intraperitoneally injected with α-PAI-1 mAb (25 μg/mouse for histological analysis and 50 μg/mouse for lethality) 2 hours before S. pneumoniae inoculation. Mouse IgG was used as control. […] Lung tissues were then subjected to histological analysis and total mRNA and protein extraction. In all Examples, saline was used as a control unless otherwise specified.
# To assess the effect of perturbing NF-κB signaling on S.p.-induced lethality in Cyld^−/− mice, Cyld^−/− mice were pretreated with the IKK inhibitor Wedelolactone (10 mg/kg, intraperitoneally) 2 hours before S.p. inoculation, and mice were then intratracheally inoculated with S.p.
# (§2) Differences in survival between wild-type, Cyld-deficient (“Cyld^−/−”), Mkk3-deficient (“Mkk3^−/−”), and PAI/−/−deficient (“PAI-1^−/−”) mice after saline, S. pneumoniae, S. pneumoniae lysate, and/or pneumolysin inoculation with or without SB203580, rPAI-1, or α-PAI-1 mAb were determined by Kaplan-Meier analysis. All tests were performed using SPSS14.0 software (SPSS Inc.). All in vivo survival rate data were evaluated by Log Lank test. All other in vivo and in vitro data were evaluated by Student t-test. Statistical significance was accepted at a value of p<0.05.
# CYLD = CYLD expression up-regulation by bacterial agonists for TLR2
# wild type mice [1] = test: Survival of wild type mice inoculated with S. pneumoniae D39 lysate or PLY after rPAI-1 pre-administration; format: in vivo, mouse; conditions: for mortality rate / lethality in mice inoculated with S. pneumoniae: rPAI-1 12.5 μg/mouse intratracheally 1 day before S. pneumoniae D39 lysate
# Experimental: as §1
# Differences in survival between wild-type, Cyld-deficient (“Cyld^−/−”), Mkk3-deficient (“Mkk3^−/−”), and PAI/−/−deficient (“PAI-1^−/−”) mice after saline, S. pneumoniae, S. pneumoniae lysate, and/or pneumolysin inoculation with or without SB203580, rPAI-1, or α-PAI-1 mAb were determined by Kaplan-Meier analysis. All tests were performed using SPSS14.0 software (SPSS Inc.). All in vivo survival rate data were evaluated by Log Lank test. All other in vivo and in vitro data were evaluated by Student t-test. […]
# Tlr4−/− mice = test: Survival of Tlr4-deficient mice after pneumolysin inoculation with or without rPAI-1 pre-administration; format: in vivo; conditions: intratracheal PLY with mouse rPAI-1 pre-administration
# Experimental: as §2
# To further determine whether exogenous rPAI-1 also reduces mortality rate in Tlr4^−/− mice, Tlr4^−/− mice were intratracheally inoculated with PLY with or without mouse rPAI-1 pre-administration, and viability was assessed.
# [2] = mouse, in vivo, 0.6 mg/kg
# Experimental: The efficacy of intratracheal administration of rPAI-1 was evaluated by assessing the presence and function of recombinant PAI-1 in mice. It was first determined whether exogenous PAI-1 is evenly distributed in the lungs of mice after intratracheal inoculation of recombinant stable PAI-1. Recombinant stable wild-type PAI-1 was first labeled with fluorescent dyes using an Alexa Flour 488 protein-labeling kit (Molecular Probes, Eugene, Oreg.) (Herbein & Wright, “Enhanced Clearance of Surfactant Protein D During LPS-induced Acute Inflammation in Rat Lung,” Am. J. Physiol. Lung Cell. Mol. Physiol. 281:L268-L277 (2001), which is hereby incorporated by reference in its entirety). Alexa dyes were selected because their magnitude of fluorescence is constant from pH 4 to 10 and they have a low level of photobleaching compared with similar fluorescent dyes used for protein labeling. […]
# To determine whether the exogenously inoculated rPAI-1 is also functional, the in vivo functional activity of intratracheally inoculated rPAI-1 was measured in lungs of mice using ELISA kits from Molecular Innovations. […]
# wild type mice [3] = test: Pathological and histological analysis of lungs (alveolar hemorrhage) of wild type mice; format: in vivo, mouse; conditions: wild type mice inoculated with rPAI-1
# Experimental: For S. pneumoniae-induced lethal infections in wild type, Cyld^−/−, Mkk3^−/−, and PAI-1^−/− mice, anaesthetized mice were intratracheally inoculated with live S. pneumoniae, S. pneumoniae wild type or pneumolysin mutant lysate, or pneumolysin (“PLY”), at a concentration of 5×10^7CFU per mouse for live bacteria and bacterial lysate and 200 ng/mouse for PLY in all experiments unless otherwise indicated, and saline was inoculated as control. The mice were monitored for lethality every 2 hours for the first 12 hours and every 12 hours for 5 days thereafter. To assess the effect of perturbing p38 MAPK signaling on S. pneumoniae-induced lethality in Cyld^−/− mice, Cyld^−/− mice were pretreated with the p38 inhibitor SB203580 (10 mg/kg, intraperitoneally in Cyld^−/− mice) 2 hours before S. pneumoniae inoculation, and mice were then intratracheally inoculated with S. pneumoniae. […]
# For histological analysis, dissected lungs were fixed with 10% buffered neutral formalin overnight with rocking followed by routine processing, embedded in paraffin, and sectioned at about 4 μm thickness. […] H&E-stained lung tissue slides were evaluated by light microscopy using Axiovert 40 CFL (Carl Zeiss), and images were recorded with an AxioCam MRC (Carl Zeiss).
# [4] = molecular target: T1, tumor necrosis factor receptor-associated factor 6, Q9Y4K3
# T1 chain: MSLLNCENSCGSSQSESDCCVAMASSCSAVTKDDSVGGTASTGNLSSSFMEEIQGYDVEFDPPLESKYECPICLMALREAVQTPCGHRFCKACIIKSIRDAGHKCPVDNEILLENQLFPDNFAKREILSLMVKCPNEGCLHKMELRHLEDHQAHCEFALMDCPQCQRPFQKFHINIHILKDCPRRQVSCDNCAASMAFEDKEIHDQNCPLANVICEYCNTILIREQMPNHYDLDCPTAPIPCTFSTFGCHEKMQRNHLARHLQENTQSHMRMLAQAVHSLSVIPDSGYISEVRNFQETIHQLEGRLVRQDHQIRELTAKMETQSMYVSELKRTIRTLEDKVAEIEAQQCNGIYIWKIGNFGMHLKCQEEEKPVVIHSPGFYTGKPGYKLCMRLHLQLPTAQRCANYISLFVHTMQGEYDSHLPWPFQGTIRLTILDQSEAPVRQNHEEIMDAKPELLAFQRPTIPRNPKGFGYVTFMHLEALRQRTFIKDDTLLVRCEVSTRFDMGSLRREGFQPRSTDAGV
# TRAF7, Q6Q0C0 = molecular target: T2, TRAF7, Q6Q0C0
# T2 chain: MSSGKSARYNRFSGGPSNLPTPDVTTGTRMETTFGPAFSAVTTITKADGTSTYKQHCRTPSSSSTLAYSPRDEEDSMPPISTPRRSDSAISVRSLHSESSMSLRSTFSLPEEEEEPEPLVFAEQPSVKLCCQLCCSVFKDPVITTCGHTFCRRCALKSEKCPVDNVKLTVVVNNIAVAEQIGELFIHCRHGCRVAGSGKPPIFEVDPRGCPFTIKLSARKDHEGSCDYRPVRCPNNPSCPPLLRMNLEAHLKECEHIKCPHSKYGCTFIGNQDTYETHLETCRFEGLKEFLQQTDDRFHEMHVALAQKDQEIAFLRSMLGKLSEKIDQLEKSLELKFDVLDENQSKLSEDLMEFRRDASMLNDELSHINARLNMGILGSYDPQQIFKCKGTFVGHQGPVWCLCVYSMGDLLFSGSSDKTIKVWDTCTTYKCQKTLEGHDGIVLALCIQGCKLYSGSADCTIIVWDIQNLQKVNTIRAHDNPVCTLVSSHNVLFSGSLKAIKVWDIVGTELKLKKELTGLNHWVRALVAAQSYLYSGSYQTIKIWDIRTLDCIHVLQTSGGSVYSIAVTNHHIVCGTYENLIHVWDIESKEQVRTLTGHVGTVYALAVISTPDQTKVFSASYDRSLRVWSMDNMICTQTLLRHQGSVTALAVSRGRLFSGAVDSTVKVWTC
molecule,measurement,setting,value
COc1cc(O)c2c(c1)oc(=O)c1c3cc(O)c(O)cc3oc21 [Wedelolactone],survival rate,Cyld−/− mice,did not greatly alter the survival rate
Pam3CSK4,CYLD expression,CYLD,up-regulated
MALP-2,CYLD expression,CYLD,up-regulated
peptidoglycan,CYLD expression,CYLD,up-regulated
B1,mortality rate / lethality in mice inoculated with S. pneumoniae,wild type mice [1],greatly reduced the mortality rate
same,mortality rate / lethality in mice inoculated with S. pneumoniae,wild type mice [1]; listed as recombinant PAI-1,protected mice from S.p.-induced lethality
same,mortality rate in mice inoculated with PLY,wild type mice [1]; rPAI-1 12.5 μg/mouse intratracheally 1 day before pneumolysin,greatly reduced the mortality rate
same,protection from lethal PLY challenge (viability),Tlr4−/− mice,fully protected mice from lethal challenge
same,distribution of intratracheally inoculated rPAI-1 in the lungs,[2],widely distributed in the lungs
same,PLY-induced alveolar hemorrhage,wild type mice [3],prevented
same,S. pneumoniae-induced alveolar (lung) hemorrhage,wild type mice [3],prevented
B2,NTHi-induced inflammatory response,[4],CYLD inhibition of this inflammatory response was achieved via deubiquitinating TRAF6 and TRAF7
same,ubiquitination of TRAF6,[4],"Overexpression of WT CYLD reduced, whereas siRNA knock-down of CYLD enhanced, the ubiquitination of TRAF6 and TRAF7"
same,NTHi-induced inflammatory response,"TRAF7, Q6Q0C0",CYLD inhibition of this inflammatory response was achieved via deubiquitinating TRAF6 and TRAF7
same,ubiquitination of TRAF7,"TRAF7, Q6Q0C0","Overexpression of WT CYLD reduced, whereas siRNA knock-down of CYLD enhanced, the ubiquitination of TRAF6 and TRAF7"
